Results taken from CN115433279A (SUZHOU DIMA BIOTECHNOLOGY CO LTD, dated 2022).

B1: 命名为1E4的兔重组单克隆抗体 (antibody, V domains shown)
VH: QSLEESGGRLVTPGTPLTLTCTASGFSLSSYYMSWVRQAPGKGLEYIGIIYDSGSTWYANWAKGRFTISKTSTAVYLEITSPTTEDTATYFCARTGSIYYIWLDLWGQGTLVTVSS
VL: AAVLTQTPSPVSAAVGGSVTISCQSSQTIYKNNDLAWYQQKPGQPPKLLIYEASKLASGVPSRFSGSGSGTQFTLTISGVQCDDAATYYCLGGYDDDDDNTFGGGTEVVVK
notes: In the later assays it was recombinant antibody purified from 293 cells
B2: 命名为1E6的兔重组单克隆抗体 (antibody, V domains shown)
VH: QSVEESGGRLVTPGTPLTLACTVSGFDISSYSMSWVRQAPGKGLEWIGSGIIGGSTYYASWAKGRFTISKTSTTVDLKITSPTTEDTATYFCARFAGTSSTDYYDLWGQGTLVTVSS
VL: TQTPSSVEAAVGGTVTIKCQASQSIDSYLAWYQQKPGQPPKLLIYDTSTLASGVSSRFKGSGSGTQFTLTISDLECADAATYYCQNYWIITTFGFGGGTEVVVK
B3: 命名为1E5的兔重组单克隆抗体 (antibody, V domains shown)
VH: QSVKESAGGLFKPTDTLTLTCTASGFTISSNAITWVRQAPGNGLEWIGGIDSSGSAYYASWAKSRSTITRNTNLNTVTLKMTSLTAADTATYFCAGGSNIWGPGTLVTVSS
VL: DIVMTQTPSSVSAAVGGTVTIKCQASESIYSYLSWYQQKPGQPPKLLIYLASTLDSGVPSRFKGSGSGTQFTLTISDLECADAATYYCQSSYFSSGSSYGNTFGGGTEVVVK
B4: 命名为5D3的兔重组单克隆抗体 (antibody, V domains shown)
VH: GGAEGGLVKPGGSLELCCKASGFSLSNLRVNWVRQAPGKGLEWIGCIISDSSGTTSYASWVNGRFTLSRDIDQNTGCLQLNSLTVADTAMYYCASRVNITSYDLSLWGQGTLVTVSS
VL: AAVLTQTPSPVSAAVGGTVSISCQSSKSVYNNKWLSWFQQKPGQPPKLLIYSASTLASGVPSRFSGSGSGTDFTLTISDVQCDDAATYYCAGGYSGSSDTYSFGGGTEVVVK

Key:
[1] = molecular target: CD123 FC融合标签蛋白 (UniProt P26951); assay: indirect ELISA, CD123 protein coated at 1 μg/ml, B cell clone supernatant
[2] = molecular target: T1, CD123全长蛋白 (细胞膜上CD123) (UniProt P26951 19-378, limits assumed); assay: flow cytometry on Raji cells, antibody titration
T1 construct: whole, on cells; also called 天然细胞表面CD123蛋白
T1 sequence (P26951 19-378 limits assumed): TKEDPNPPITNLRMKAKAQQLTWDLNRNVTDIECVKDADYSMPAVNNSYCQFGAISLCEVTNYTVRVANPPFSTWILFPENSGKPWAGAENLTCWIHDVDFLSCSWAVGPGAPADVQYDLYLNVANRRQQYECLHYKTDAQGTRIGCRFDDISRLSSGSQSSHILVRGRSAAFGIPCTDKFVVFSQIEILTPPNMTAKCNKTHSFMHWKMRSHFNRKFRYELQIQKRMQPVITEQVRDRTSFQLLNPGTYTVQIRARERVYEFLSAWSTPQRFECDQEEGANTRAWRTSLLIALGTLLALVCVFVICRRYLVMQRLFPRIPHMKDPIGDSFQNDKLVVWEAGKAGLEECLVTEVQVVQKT

Row | Binder | OD450 [1] | binding result [2]
1 | B1 | 2.1 OD450 | binds
2 | B2 | 1.53 OD450 | –
3 | B3 | 1.87 OD450 | binds
4 | B4 | 1.77 OD450 | –
